Reference: the DeepSol protein solubility set

Experiment: soluble on expression in E. coli; label from the status in PepcDB or PDB records

Sequence	soluble on expression in E. coli
MGSDKIHHHHHHAVDAKLLEMLRANGSINQAQYNELQGDLAKETKEKADQKAQSERMSSFEQKVAWAAKTQIKGDVRLRYEDVNVDDPNSSSGNQDRQRVRARVGFYSEINPQVDAGVRIATGSSADRRSTNQSFDNYFDKKSLWVDLAYLDWHPTAVPNLHLIGGKMQQPWVSMGDIIWDSDINPEGVAATYKADLGGAEVFASAGQYTLKDNVDGDGVQYKHDAQVYHGQLGAKFAPADVLKLTVGASIYGYDNDKEAAILQSFGNTTNEFNLVEGFGQIDFTGLAIPLSAYGQYVKNTDSTDGEDQAWLAGLKTKMGAWSLDYNYRDVQRNAVVSLFTDSDFGNGYTGSRGHKFKVGYEIDKNFSLGAAYLMAKTDLSQLPNSNADVDTLQVDLEAKF	not soluble
MGSDKIHHHHHHAYGILGVLAITKDEAVLVAVTGVLSVGQLYGADILKITNVEFISLRTFGSVENVDSRIIDLQRQFIDLKKMFEKIIKKILKNLQRLLSSQMFYFSSLQSYDLTRSAQHRDSHDCSDARFFWNRSLHFSFQRYGIDTDNWLLKCMAGSVLVRVVYVGANTGRVALISRLSCERVGTRFNVRGANYLGNVANFVETEQLLLFDEKECSLLQIRGSIPLFWEQPGVNVGSHKVKLRAFETSLPAYHRHLSQLQHRYGEFAIVNLLGRKEGERVLGDAFKTQHKSSHFAPLVDFIDFDYHAQMKISKEAI	not soluble
MGSDKIHHHHHHCLDVDIVDRVEKEDGFFKTEDHALAAINGVYSTLYAFAYHKTNWAIILPTYEDAMFSTGNAVPATVSNNTHSAGSAPVVNFWGELYNGIKNANEVIARVPSISFKSENDKNRIIAEAYFLRALYHYDLMRLYGGVNGIPIVIEPVTGIENAYVPQSPASKVYEQIISDFEYAAGLNDDDTPRLPKRLDPAYTSGRVTNGAAHAFLAEVYLTLGRWEDAAREAQEVISSEQYTFVNDYQNLWDIEQESLAQTEHIFSVPFFRDKDALADQSLGSNIAHLFNPAGVQVGGKLVSGNPYGKGAGAHRVQKWFIKYFQDDQGNLGYSDPSVDASIDESKLISKDYRIEVTFWRRFQQKNNNTGVLGNIVTVYPAAGGNSQENWGYIRKFIDPQGINNRTNENDMPRLRLSDMYLIRAEALNELGKYTEACQAIDMVRERARKANGTERAYPKYIGSDRPDNIGRTLTKQEFRWLVFMERGLEFAGEQKRWFDLIRMKYDENTQMYDYIKDTFIPSRPAADVQKQGVMAARKKYFPIPFAEVSRNDGVQQNPGY	not soluble
MGSDKIHHHHHHDSFLDEKMYSSYGPEVSDVNAKLVGLHRQYAAIWGMSSQQGFVGCWQVGTDVGAPGDTQGVEVPFYRYQELNAENAGVSFLWEKLYELINSANQIIASQAEGGDAAATAEAMFFRAYAYNMLVTLWGDVPLVTESTSIPRTDYTRNAVAEVDGVIDSDLVYAMSNLPVVGAAKNESRINQDMARQLAGEAYLRMGMRDASYFKKAEDAVTPIITGGKYELISARYGKYAAEPGDYYHDMFRWGNQRRSQGNMEAIWTFEMEYNRDVNGGTIDNPQQRRNWVPAFHKLDGMVNADSIGGRGNGRLRISNFVKYGLYEKGDIRNSNYNIRRVMWYNKPGFSKEVGIDAKGFLVDKDKGIRNVTLKTGDQVIPHEGDSLNVFYPHPTKWGAYDETDDFGYAVVKDWPVMRLGETYLLRAEARFRQGNTQGAADDINVLRDRAFKDYRAVAPGAGKVTADQIDIDFILDERARELISEENRRMTLVRTNTLAERIKLNGDMEPAAPSNKVITGFDANIHTLLPIPLTEIQLNKDGDLKQNPGY	not soluble
MGSDKIHHHHHHEADNYEPPKVDLKDQIPIILIHGSGGNASSLDKMADQLMNEYRSSNEALTMTVNSEGKIKFEGKLTKDAKRPIIKFGFEQNQATPDDWSKWLKIAMEDLKSRYGFTQMDGVGHSNGGLALTYYAEDYAGDKTVPTLRKLVAIGSPFNDLDPNDNGMDLSFKKLPNSTPQMDYFIKNQTEVSPDLEVLAIAGELSEDNPTDGIVPTISSLATRLFMPGSAKAYIEDIQVGEDAVHQTLHETPKSIEKTYWFLEKFKTDETVIQLDYK	not soluble
MGSDKIHHHHHHEDDCATNPEPAGDVTEIKLSAGIQGVATRTPVSTNDNITAPFVASATTGDYTTNAWSSTVTFVASPTPTAALSFSPARYYPVDNSPIYIRGYYPAGTLSGKTVTLAGDGTEDVMLTAQASGTKATAGALSFVFNHLLTQLQFKLVAGAGYPASGVNVTSLVIKQQKTPATLDLNTSSLTYTTKDLTLSGTFPILTAGSTINNYPMVKSGEALTVAVTTSDGVTYPESTISVTTEVGKSHLITLTFTPKEITSSISVTAWQTGGTGSSTLQ	not soluble
MGSDKIHHHHHHENDPPLSSCGIFQSRIAGDALLDSGIRISSVFASPALRCVQTAKLILEELKLEKKIKIRVEPGIFEWTKWEAGKTTPTLMSLEELKEANFNIDTDYRPAFPLSALMPAESYQEYMDRCTASMVQIVNTCPQDTGVILIVSHGSTLDSCTRPLLGLPPRECGDFAQLVRKIPSLGMCFCEENKEEGKWELVNPPVKTLTHGANAAFNWRNWISGN	not soluble
MGSDKIHHHHHHENLYFQGMKKVFITTGTEHYLRQLMENYIGENVTLLQNFSQSLLYQESTGEKLFQEGKEYRVLQSSGSLKGFGIVVFEYIQLRDEEIPIFLQMYQHASLHFSETPGLQSTKLTKAMNTNQFLIVSFWDSEVFFQEWKKTPLHKEITSIMKKNNTQVGFSHEDIYHYPEFSHDAK	soluble
MGSDKIHHHHHHENLYFQGMRISANFDGGNIETISLANPDDIQLAIRPDAGGEFYQWFNFRFEATIGKTYTLNILNAGGASYLKGWEDYQAVASYDRQTWFRLPTEYKDGKLSISVELDCEAIQIAYFTPYSYERHLDLISAVQLHPLVSTEHLGLTLDGRDMTLVKVGDDDPSKKSIWITARQHPGETMAEWLVEGLLNQLLDNDCPTSKALLDKANFYIVPNMNPDGSVRGHLRTNAVGANLNREWQTPSLERSPEVYYVVNKMHETGVDLFYDVHGDEGLPYVFLAGCEGIPNYSDKLASLQQDFVAALSLASADFQTEFGYDKDEPGKANLTVACNWVANTFKCLSNTLEMPFKDNANLADPFQGWSPERSVYFGEASLIAMRAVIDKIGQ	soluble
MGSDKIHHHHHHENLYFQGMSRKVILTCAVTGNAPFNPKHPSMPITPAQIADACVEAAKAGASVAHIHVRDPKTGGGSRDPVLFKEVVDRVRSSGTDIVLNLTCGLGAFLLPDPEDESKALPESDVVPVAERVKHLEDCLPEIASLDITTGNQVEGKLEFVYLNTTRTLRAMARRFQELGIKPELEVFSPGDILFGKQLIEEGLIDGVPLFQMVLGVLWGAPASTETMIYQRNLIPANAQWAAFGIGRDQMPMMAQAALLGGNVRVGLEDNLYLSRGVFATNGQLVERARTVIEHLGMSVATPDEARDIMGLSRPA	soluble
MGSDKIHHHHHHGQNVHPNLPWIDISGQRERQVTIAPGRPDLYNGHPTTVMMDDHKTILCTWSYGHGGKASFIAESKDAGLTWKNGKTPADWQTMSNCPSIYKLTDKQGKERVFVFSAWPDMPMTYSEDGGKSWSPVRSLNKPCVMAFSSIVKLKNGDYLGLYHRGLNDRDRPPLTLWQSVSHDGGLTWSESVKVGEMEGRSPCEPCVFRAPDGKRLVCVARENNRVGNSLMMFSDDEGTTWSPLQKTPWGLTGDRHVIKFTPDGRMIAVFRDMAPNSPTKGHFVAWVGNYKDLLEGTSGQYKIKLLHSYAGSDCGYPGLEILPDGTIVAITYVKMRPGPEQHSIVGVRFKLEETDKMLY	not soluble
MGSDKIHHHHHHIDQWIRRQHHPTGNPTATQNKVFIATQNQPLLMDTGEKKSPPPPTPPNPPVNHAIAPVAQHPQPMPIPHQVPSPAHGAAHGHPQAPPMYPGIGFAPGMLQLPQNMQTTIVYTPSMAYDNGHPAAQVN	not soluble
MGSDKIHHHHHHILDSTIYLIGTAHFSKESQEDVSNTIRAVQPDFVMLELCPSRISIISMDEARLLSEAKDLNSQKIIQTMKQNGAIQGILHVLLLSMSAHVTRELSMAPGGEFRAAHRAAVATENCRVVLGDRPIQVTLQRALASLSIWQKIRFFFHVAFSHREKITAEEVERCKQRDLLEQLLAEMADDFPQLSQIFVEERDAYMTHALHMLVHRNSVEKRAQWLRGTTGQQFQPLTVVAVV	not soluble
MGSDKIHHHHHHKDDEESTSGYDPNKPIVLTDFYPPEGKLATQVILNGSNFGDSKENVKVFFNDKEASVISVKDDRMLVLAPKRASTIEDPECVVKVQVHEQIEEYKQTFDYYIQTTVTTLVGGSTSAQVNPTGTIPLSEAQFRANIDRCICVDQDKNVFFLVDNDGKFAAFMLNEEADKLISLKSDINALFNSPVLGYNSKDDIVYQFWANRDSHEVYYFDPKTDYAPTTAISSISWDDPNFPNIEGFGVWAAKCNFTMGPDGKMYSRMLGGNLVRIDVENARGENLTNGDLVGTKDGSAYGLVFDPQDENVFYFSNNDKHCIYKYDLRTKECACWAGQEGKSGYLDGPIGQAMFNKPGQMCVDSEGNIILTDTENHCIRKITMSTGYVSTLAGKPQNSGYVNGSAEDAQFKKPLGICIDNDDVMYIGDSENRAIRRLAVE	not soluble
MGSDKIHHHHHHKETSEKPVLFPDYADVTIPYNIAPLNFKIENPHAEAFAVLKFGEEKIQVKEKGGQFYLPASDWRKLLKRATGKAIQVKLYAKDKEWLAYPEFSLFVAPEPMDSYLAYRLIEPGYELWNQMGIYQRNLEDYKQSPIMENKYSGQNCMNCHSFCMQNPDKMLFHMRDKYSGTYLIDGDKIEKLNTKTDQTISPLVYPSWHPSGKYVAFSVNQTSQSFHANDKNRVEVFDSQSDVVVYDTEKHEIISTPSIRTAKAFETFPTFSPDGKTLYFCSAEARSMPHEYSEVKYNLCSIAFDPVTRSFGSRIDTLYNAGKDGKSASFPRVSPDGKFLLYTLSGYGNFSIWHKDADLYLLDIASGISHSLQNANSTDTESYHSWSSNSRWIVFSSRRIDGLYTRPYFAYIDEEGNASKPFLLPQKDTDYYHRFMKSYNIPEFITGKVSSKIRALSTLAKEDKGIDVTYRK	not soluble
MGSDKIHHHHHHKRQVSGDEAYLQASPLSELHAPAGMILPIQVGDYNIPVANSTGAVGKALDIRPPAQPLALVSGARTQFNGDTATLMVENGRSGSLWAQVTSILQAKNYVIAKRDDASQTLNTDWVEWNRLDEDQQYRGRYQISVKPQGYQQAVVVKLVNLEQAGKPVADPASLQRYSTAMLNVISEGLDMNATSAQNAAQRSAGATFDVQSAADDTGLPMLVVRAPFNLVWQRLPGALEKVGMKVTDSTRSQGSMALTYKPLSDSSWQELGARDPQLVSGDYKLQVGDLDNRSSLQFIDPKGHTLTQSQNDALVAVFQAAFNK	not soluble
MGSDKIHHHHHHKVRPTKTTLKKDTQLYGVTIDDSWYDRTKMTDIIAALKAMPVKPTVRIVMSKDSSPKSYVNLFRKLHKVAYVMACPVDSYEMNLYKDVNSYRKRFAVAYHYLSSYTDIWEIGNEVNGTDWIKQKNTLITQKLKAVCQTISSAGGKTALTFYYENPKYDHDMIAWIKKNIPVMLRSRVDYGFISYYEDDNEGYQPDWQSVFNQLQNLFPNSNVGMGECGNTADNATENSKIAMAKRYYTMPKYTKHYVGGYFWWEWVQDCVPHENNPIYDAINKSLKK	not soluble
MGSDKIHHHHHHLEFWDGLSGGKAITPLKKEEIKHIEKQLGSRLPKSYLKKMEEQNGGDIAFNSVVVNFKNSWSDEETGLYLPLYEFMPLTIGKFVENTSVLNEWGLAGKKMIFGEGEGSYLWYFDFDENPKNPEVWCLDISDETAHLVAESFEALLPNLKKRANDDVLTHEDVFADYPSMCEIRETIKGTDEDARLEAYRMWLTRCEDLEGLIAELRQRVEHSDEEDELDSYAELLAEVLINYTSEEFMTYEEAIALFNKKEDVSDLSHVIVQLESEV	not soluble
